Results on 4 sequences are retold here after the Immune Epitope Database (IEDB).

Test [1] deals with HLA-A*02:03. The test is described as follows: IEDB peptide-MHC binding, purified MHC/direct/fluorescence; filed as Kd, often an IC50 or EC50 that approximates it; ≥ and ≤ were set here for values at or beyond the usual limits of such assays. The conditions noted are these: source organism: Mycobacterium tuberculosis str. Haarlem.
The target in test [2] is HLA-C*05:01. The test is described as above. The following applies: source organism: Mycobacterium tuberculosis variant bovis BCG str. Pasteur 1173P2.
Test [3] has as its target HLA-A*69:01. Described as above. The conditions noted are these: source organism: Mycobacterium tuberculosis.
Test [4] concerns the target HLA-C*08:02. The test is described as above.
For test [5], the target named is HLA-B*46:01. Description: IEDB peptide-MHC binding, purified MHC/competitive/fluorescence; filed as Kd, often an IC50 or EC50 that approximates it; ≥ and ≤ were set here for values at or beyond the usual limits of such assays. The conditions noted are these: source organism: Mycobacterium tuberculosis variant bovis BCG str. Pasteur 1173P2.
Test [6] has as its target HLA-A*32:15. The description is as above. The following applies: source organism: Mycobacterium tuberculosis variant bovis BCG str. Pasteur 1173P2.
Test [7] concerns the target HLA-C*14:02. The test is described as above.
For test [8], the target named is HLA-B*83:01. The description is as above.
Test [9] concerns the target HLA-B*15:42. Described as above.
Test [10] addresses HLA-B*45:06. Described as above.
The target of test [11] is HLA-C*14:02. Description: IEDB peptide-MHC binding, purified MHC/direct/fluorescence; filed as Kd, often an IC50 or EC50 that approximates it; ≥ and ≤ were set here for values at or beyond the usual limits of such assays. The conditions noted are these: source organism: Homo sapiens.
In test [12] the target is HLA-A*03:01. The test is described as follows: IEDB peptide-MHC binding, purified MHC/competitive/fluorescence; ≥ and ≤ were set here for values at or beyond the usual limits of such assays. The conditions noted are these: source organism: Homo sapiens.
For test [13], the target named is HLA-B*35:01. The description is as above. The conditions noted are these: source organism: Homo sapiens.
The target of test [14] is HLA-B*53:01. Described as above. The conditions noted are these: source organism: Homo sapiens.
In test [15] the target is HLA-A*31:01. The description is as above. The conditions noted are these: source organism: Homo sapiens.
Test [16] has as its target HLA-A*11:01. The test is described as above. The conditions noted are these: source organism: Homo sapiens.
Test [17] concerns the target HLA-B*44:03. The test is described as above. The conditions noted are these: source organism: Homo sapiens.
Test [18] deals with HLA-B*07:02. The test is described as above. The following applies: source organism: Homo sapiens.
Test [19] has as its target HLA-B*40:02. The test is described as above. The following applies: source organism: Homo sapiens.
In test [20] the target is HLA-B*51:01. The description is as above. The following applies: source organism: Homo sapiens.
For test [21], the target named is HLA-A*01:01. Described as above. The following applies: source organism: Homo sapiens.
Test [22] concerns the target HLA-B*08:01. Described as above. The following applies: source organism: Homo sapiens.
For test [23], the target named is HLA-B*37:01. Described as above. The conditions noted are these: source organism: Homo sapiens.
Test [24] deals with HLA-A*25:01. The description is as above. The conditions noted are these: source organism: Homo sapiens.
Test [25] has as its target HLA-B*14:02. The description is as above. The conditions noted are these: source organism: Homo sapiens.
The target in test [26] is HLA-B*58:01. The test is described as above. The conditions noted are these: source organism: Homo sapiens.
The target of test [27] is HLA-A*02:01. The test is described as above. The following applies: source organism: Homo sapiens.
Test [28] concerns the target HLA-A*24:02. The test is described as above. The following applies: source organism: Homo sapiens.
For test [29], the target named is HLA-A*68:02. Described as above. The conditions noted are these: source organism: Homo sapiens.
Test [30] has as its target HLA-A*29:02. The test is described as above. The following applies: source organism: Homo sapiens.
The target of test [31] is HLA-B*18:01. The description is as above. The following applies: source organism: Homo sapiens.
For test [32], the target named is HLA-C*15:02. Description: IEDB peptide-MHC binding, purified MHC/direct/fluorescence; filed as Kd, often an IC50 or EC50 that approximates it; ≥ and ≤ were set here for values at or beyond the usual limits of such assays. The conditions noted are these: source organism: Corynebacterium glutamicum ATCC 13032.
Test [33] deals with HLA-A*68:23. The test is described as follows: IEDB peptide-MHC binding, purified MHC/competitive/fluorescence; filed as Kd, often an IC50 or EC50 that approximates it; ≥ and ≤ were set here for values at or beyond the usual limits of such assays. The following applies: source organism: Corynebacterium glutamicum ATCC 13032.
In test [34] the target is HLA-C*06:02. Described as above. The following applies: source organism: Corynebacterium glutamicum ATCC 13032.
In test [35] the target is HLA-C*04:01. Described as above. The following applies: source organism: Rattus norvegicus.
Test [36] addresses HLA-A*01:01. The description is as above. The following applies: source organism: Rattus norvegicus.
The target of test [37] is HLA-A*80:01. Described as above. The conditions noted are these: source organism: Rattus norvegicus.
In test [38] the target is HLA-A*29:02. The description is as above. The conditions noted are these: source organism: Rattus norvegicus.
The mark [39] stands for this setting: source organism: Mycobacterium tuberculosis variant bovis BCG str. Pasteur 1173P2.
Setting [40] is: source organism: Corynebacterium glutamicum ATCC 13032.
[41] abbreviates: source organism: Rattus norvegicus.

Bounds are passed on as bounds.

As to FMFDYIPPV, the Kd is at most 1 nM in test [1]; at least 20 µM in test [2]; 1.3 nM in test [3]; 368 nM in [4] (setting [39]); 10.1 nM in test [5]; 203 nM in [6]. For the same sequence, the Kd is 5.7 nM in test [7] (setting [39]), at least 5 µM in [8] (setting [39]), 3.86 µM in test [9] (setting [39]) and at least 5 µM in [10] (setting [39]).

In test [11], FPHTELANL displayed a Kd of 792 nM. For the same sequence, the 50% inhibitory concentration (IC50) in test [12] is at least 20 µM; in test [13], 8.5 nM; in [14], 221 nM; in test [15], at least 20 µM; in [16], at least 20 µM; in test [17] it was at least 20 µM. Further, the concentration for half-maximal inhibition (IC50) in test [18] is 112 nM; in test [19], 734 nM; in test [20] it was 685 nM; in test [21], at least 20 µM; in test [22], 1080 nM; in [23], at least 20 µM. Besides, the IC50 in test [24] is at least 20 µM; in [25] it was at least 20 µM; in test [26] it was at least 20 µM; in test [27], at least 20 µM; in test [28], at least 20 µM; in test [29], 224 nM. In addition, the values for the concentration for half-maximal inhibition (IC50) in test [30] and in test [31] were at least 20 µM and 422 nM, respectively.

As to RIFPATHYV, the Kd in test [32] was 17 nM; in [3] it was 18.8 nM; in test [4] (setting [40]), at least 20000 nM; in test [33] it was 197 nM; in test [8] (setting [40]) it was at least 5 µM; in test [34], 35.7 nM. The Kd in test [9] (setting [40]) and in test [10] (setting [40]) was at least 5 µM each time.

As to YYRYPTGESY, the Kd was at least 5 µM in [35]; at least 20 µM in test [36]; at most 0.1 nM in test [7] (setting [41]); at least 5 µM in test [8] (setting [41]); 1460 nM in test [37]; at most 0.1 nM in [38]. Further, the Kd in test [9] (setting [41]) and in test [10] (setting [41]) was at least 5 µM throughout.
